Measured values from publication PMC6440019, “The WRKY transcription factor GhWRKY27 coordinates the senescence regulatory pathway in upland cotton (Gossypium hirsutum L.)”.
Numbering of substitutions follows the chain as printed.

What was measured:
Conditions in all cases: protein: recombinant; tags: 6xHis (pET-28a(+))
GhWRKY27 [1] = target: T1, GhWRKY27 (Gossypium hirsutum (CCRI74), UniProt A0A068LI73 1-355); assay: EMSA; self-competition abolishes band; supershift with anti-GhWRKY27; LightShift Chemiluminescent EMSA Kit (Thermo), manufacturer's instructions; buffer, salt, pH and temperature not stated
T1 sequence (A0A068LI73 entry or part of it): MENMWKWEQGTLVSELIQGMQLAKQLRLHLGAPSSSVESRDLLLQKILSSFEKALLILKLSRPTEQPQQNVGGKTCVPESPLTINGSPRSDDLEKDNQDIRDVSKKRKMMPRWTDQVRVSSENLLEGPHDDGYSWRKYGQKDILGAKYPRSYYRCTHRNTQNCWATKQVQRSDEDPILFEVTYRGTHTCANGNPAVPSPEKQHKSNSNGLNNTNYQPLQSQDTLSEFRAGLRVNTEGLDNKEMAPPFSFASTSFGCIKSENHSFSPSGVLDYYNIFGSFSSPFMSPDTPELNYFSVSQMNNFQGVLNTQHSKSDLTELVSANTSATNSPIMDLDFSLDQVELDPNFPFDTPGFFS

GhWRKY27 [2] = target: T1, GhWRKY27; assay: competition; excess unlabelled mutant vs labelled N1; LightShift Chemiluminescent EMSA Kit (Thermo), manufacturer's instructions; buffer, salt, pH and temperature not stated
GhWRKY27 [3] = target: T1, GhWRKY27; assay: EMSA; self-competition; supershift with anti-GhWRKY27; LightShift Chemiluminescent EMSA Kit (Thermo), manufacturer's instructions; buffer, salt, pH and temperature not stated

B1: GhCYP94C1 wild probe (dsDNA)
DNA 1: CCAGCTCCTCGCGAAAAGAAAAATGACTAAAAAAATATTTAATTCTTAGT
DNA 2: ACTAAGAATTAAATATTTTTTTAGTCATTTTTCTTTTCGCGAGGAGCTGG
binding result (GhWRKY27 [1]): binds

B2: GhCYP94C1 mutant probe (dsDNA)
DNA 1: B1 DNA 1 with C27A, T28A
DNA 2: B1 DNA 2 with A23T, G24T
binding result (GhWRKY27 [2]): no binding

B3: GhRipen2-2 wild probe (dsDNA)
DNA 1: CTGGGCTCAGGTCAGAAAAGCTTTACTCGGGGCTTGACTCGTTTTCTAA
DNA 2: TTAGAAAACGAGTCAAGCCCCGAGTAAAGCTTTTCTGACCTGAGCCCAG
binding result (GhWRKY27 [3]): binds
